± gives the uncertainty stated by the source.

To fix the notation:
B1: REST corepressor 3, residues 87 to 134; numbered along this chain, Q9P2K3 (parent)
chain: DEWTVEDKVLFEQAFSFHGKSFHRIQQMLPDKTIASLVKYYYSWKKTR

The data set covers variants of B1. The data set is described as follows: abundance fitness (aPCA) (normalised: wild type 0, dead -1); higher = more abundant; growth selection in yeast, the domain comes from the species named. Conditions: Homo sapiens.
Regarding DEWTVEDKVLFEQAFSFHGKSFRRIQQMLPDKTIASLVKYYYSWKKTR [H23R], the abundance fitness was -0.407 ± 0.13.

Regarding DEWTVEDKVLFEQAFSFHGKSFHRIQQMLPDKTYASLVKYYYSWKKTR [I34Y], the abundance fitness was -0.508 ± 0.38.

Turning to DEWTVEDKVLFEQAFSFHGKSFHRIQQMLPDKTKASLVKYYYSWKKTR [I34K], the abundance fitness was -0.67 ± 0.38.

As to DEWTVEDKVLFEQAFSFHGKSFHRIQQMLPDKTNASLVKYYYSWKKTR [I34N], the abundance fitness is -0.267 ± 0.34.

Turning to DEWTVEDKVLFEQAFSFHGKSFHRIQQMLPDKTTASLVKYYYSWKKTR [I34T], the abundance fitness is -0.644 ± 0.16.

Regarding DEWTVEDKVLFEQACSFHGKSFHRIQQMLPDKTIASLVKYYYSWKKTR [F15C], the abundance fitness is 0.29 ± 0.27.

Take DEWTVEDKVLFEQAFSFHGKSFHRKQQMLPDKTIASLVKYYYSWKKTR [I25K]: the abundance fitness was -0.54 ± 0.38.

With DEWTVEDKVLFEQAFSFHGKSFHRMQQMLPDKTIASLVKYYYSWKKTR [I25M], the abundance fitness is -0.708 ± 0.45.

As to DEWTVEDKVLFEQAFSFHGKSFHRPQQMLPDKTIASLVKYYYSWKKTR [I25P], the abundance fitness is -0.568 ± 0.25.

As for DCWTVEDKVLFEQAFSFHGKSFHRIQQMLPDKTIASLVKYYYSWKKTR [E2C], the abundance fitness was -0.116 ± 0.33.

For the variant DGWTVEDKVLFEQAFSFHGKSFHRIQQMLPDKTIASLVKYYYSWKKTR [E2G], the abundance fitness stood at 0.037 ± 0.11.

Regarding DEWTVQDKVLFEQAFSFHGKSFHRIQQMLPDKTIASLVKYYYSWKKTR [E6Q], the abundance fitness was 0.293 ± 0.48.

In the case of DEWTVDDKVLFEQAFSFHGKSFHRIQQMLPDKTIASLVKYYYSWKKTR [E6D], the abundance fitness is -0.466 ± 0.16.

For the variant DEWTVEDKVLFEQTFSFHGKSFHRIQQMLPDKTIASLVKYYYSWKKTR [A14T], the abundance fitness was -0.609 ± 0.31.

Consider DEWTVEDKVLFEQAFSFHGKSKHRIQQMLPDKTIASLVKYYYSWKKTR [F22K], for which the abundance fitness is -0.551 ± 0.38.

For DEWTVEDKVLFEQAFSFHGKSYHRIQQMLPDKTIASLVKYYYSWKKTR [F22Y], the abundance fitness was -0.424 ± 0.43.

Turning to DEWTVEDKHLFEQAFSFHGKSFHRIQQMLPDKTIASLVKYYYSWKKTR [V9H], the abundance fitness was -0.237 ± 0.2.

Take DEWTVEDKWLFEQAFSFHGKSFHRIQQMLPDKTIASLVKYYYSWKKTR [V9W]: the abundance fitness is -0.18 ± 0.24.

In the case of DEWTVEDKVLFEQAFSFHGKSFHRIQQMLPDKTIISLVKYYYSWKKTR [A35I], the abundance fitness is -0.062 ± 0.046.

For the variant DEWTVEDKVLFEQAFSFHGKSFHRIQQMLPDKTIASLVKYYYSWKKVR [T47V], the abundance fitness was -0.752 ± 0.32.

Regarding DEWTVEDKVLFEQAFSFHGKSFHRIQQMLPDKYIASLVKYYYSWKKTR [T33Y], the abundance fitness is -0.708 ± 0.38.

For DEWTVEDKVLFEQAFSFHGKSFHRIQQMLPDKSIASLVKYYYSWKKTR [T33S], the abundance fitness is -0.385 ± 0.14.

Consider DEWTVEDKVLFEQAFSFHGKSFHRIQQMLPDKRIASLVKYYYSWKKTR [T33R], for which the abundance fitness is -0.688 ± 0.16.

As to DEWTVEDKVLFEQAFSFHGKSFHRIQQMLPDKTIASLVKYYRSWKKTR [Y42R], the abundance fitness stood at 0.234 ± 0.062.

Take DEWTVEDKVLFEQAFSFHGKSFHRIQQMLPDKTIASLVKYYLSWKKTR [Y42L]: the abundance fitness was determined as 0.015 ± 0.042.

Take DEFTVEDKVLFEQAFSFHGKSFHRIQQMLPDKTIASLVKYYYSWKKTR [W3F]: the abundance fitness was -0.264 ± 0.12.

On to DEWTVEDKVLFEQAFSFHGKSFHRIQQMLPDKTIASLVKYVYSWKKTR [Y41V], for which the abundance fitness was -0.657 ± 0.46.

DEWTVEDKVLFEQAFSFHGKSFHRIQQMLPDKTIASLVKRYYSWKKTR [Y40R]: the abundance fitness was -0.964 ± 0.28.

Consider DEWTVEDKVLFECAFSFHGKSFHRIQQMLPDKTIASLVKYYYSWKKTR [Q13C], for which the abundance fitness was -1.02 ± 0.46.

DEWTVEDKVLFEAAFSFHGKSFHRIQQMLPDKTIASLVKYYYSWKKTR [Q13A]: the abundance fitness was -0.389 ± 0.18.

For DEWTVEDKVLFEQAFSPHGKSFHRIQQMLPDKTIASLVKYYYSWKKTR [F17P], the abundance fitness was -0.537 ± 0.46.

Take DEWTVEDKVLFEQAFSFHGKSFHRIQQMLPDKTIASLFKYYYSWKKTR [V38F]: the abundance fitness is -0.663 ± 0.14.

As to DEWTVEDKVLFEQAFSFHGKSFHRIQQMLPDKTIASLMKYYYSWKKTR [V38M], the abundance fitness is -0.115 ± 0.095.

On to DEWTVEDIVLFEQAFSFHGKSFHRIQQMLPDKTIASLVKYYYSWKKTR [K8I], for which the abundance fitness is -0.388 ± 0.5.

On to DEWTVEDGVLFEQAFSFHGKSFHRIQQMLPDKTIASLVKYYYSWKKTR [K8G], for which the abundance fitness is -0.673 ± 0.12.

Consider DEWTEEDKVLFEQAFSFHGKSFHRIQQMLPDKTIASLVKYYYSWKKTR [V5E], for which the abundance fitness came to 0.388 ± 0.11.

In the case of DEWTVEDKVLFEQAFSFHGKSFHRIQKMLPDKTIASLVKYYYSWKKTR [Q27K], the abundance fitness was -0.419 ± 0.29.

As for DEWTVEDKVLFEQAFSFHGKSFHRIQQFLPDKTIASLVKYYYSWKKTR [M28F], the abundance fitness is -0.502 ± 0.46.

Regarding DEWTVEDKVLFEQAFSFHGKSFHRIQQWLPDKTIASLVKYYYSWKKTR [M28W], the abundance fitness was -0.589 ± 0.23.

For the variant DEWTVEDKVLFEQAFSFHGKSFHRIFQMLPDKTIASLVKYYYSWKKTR [Q26F], the abundance fitness is -0.595 ± 0.46.

As for DEWTVEDKVLFEQAFSFHGKSFHRILQMLPDKTIASLVKYYYSWKKTR [Q26L], the abundance fitness was -0.648 ± 0.17.

As to DEWTVEDKVLFEQAFSFHGKSFHRIQQMLPDKTIASLVKYYYSWYKTR [K45Y], the abundance fitness came to 0.357 ± 0.19.

Consider DEWTVEDKVLFEQAFSFHGKSFHRIQQMLPDKTIASLVKYYYGWKKTR [S43G], for which the abundance fitness is -0.154 ± 0.055.

As for DEWTVEDKVLFEQAFSFHGKSFHRIQQMLPDKTIASLVTYYYSWKKTR [K39T], the abundance fitness is -0.422 ± 0.23.

With DEWTVEDKVLFEQAFSFHGKSFHRIQQMLPDKTIATLVKYYYSWKKTR [S36T], the abundance fitness is -0.347 ± 0.2.

On to DEWTVEDKVLFEQAFSFHGKSFHRIQQMLPTKTIASLVKYYYSWKKTR [D31T], for which the abundance fitness is -0.316 ± 0.25.

With DEWTVEDKVLFEQAFSFHGKSFHRIQQMLPLKTIASLVKYYYSWKKTR [D31L], the abundance fitness is -0.314 ± 0.13.

In the case of DEWTVEDKVLFEQAFSFHGKSFHRIQQMLPWKTIASLVKYYYSWKKTR [D31W], the abundance fitness was -0.539 ± 0.23.

Regarding DEWTVEDKVLFEQAFSFHGKSFHRIQQMLGDKTIASLVKYYYSWKKTR [P30G], the abundance fitness is -0.957 ± 0.33.

Turning to DEWTVEDKVLFEQAFSFHGKDFHRIQQMLPDKTIASLVKYYYSWKKTR [S21D], the abundance fitness worked out at 1.11 ± 0.23.

For DEWTVEDKVLFEQAFSFHGKSFHRIQQMLPDKTIASLVKYYYSWKFTR [K46F], the abundance fitness was -0.54 ± 0.38.

Take DEWTVEDKVLFEQAFSFHGKSFHRIQQMLPDKTIASLVKYYYSWKVTR [K46V]: the abundance fitness was -0.399 ± 0.12.

As for DEWTVEDKVLFEQAFSFHGKSFHRIQQMLPDKTIASLVKYYYSWKATR [K46A], the abundance fitness is -0.053 ± 0.074.

DEWTVEDKVLFEQAFSFHGKSFHRIQQMLPDRTIASLVKYYYSWKKTR [K32R]: the abundance fitness was -0.473 ± 0.062.

Source of the values: the Human Domainome abundance scans (Beltran et al. 2025).
